Assay results: publication PMC13043311, “2′-O-Methyl-guanosine RNA fragments antagonize TLR7 and TLR8 to limit autoimmunity”
Substitutions are numbered along the chain they refer to. Each block holds one molecule with its values, some of them ahead of it.

Columns and labels:
[1] = target: Macaca mulatta TLR7 (mmTLR7) ectodomain (Macaca mulatta); assay: cryo-EM structure; mmTLR7 ectodomain in the presence of GUC-v1^PS (mGmUdC^PS, mixture of RR, RS, SR and SS configurations); overall resolution 3.0 Å
[2] = target: Macaca mulatta TLR7 (mmTLR7) ectodomain (Macaca mulatta); assay: cryo-EM structure; TLR7 in complex with mGrUrC^PO; resolution 2.9 Å
[3] = target: Macaca mulatta TLR7 (mmTLR7) ectodomain (Macaca mulatta); assay: cryo-EM structure; TLR7 in complex with mGrArA^PS (mixture of four PS stereoisomers); resolution 2.7 Å
[4] = target: T1, TLR8 WT (hTLR8) (human, UniProt Q9NR97 27-827); assay: SPR; not detected; SPR with recombinant TLR7/TLR8; buffer, pH and temperature not in the material; details: protein: recombinant; chain copies: 2; single-stranded
T1 sequence: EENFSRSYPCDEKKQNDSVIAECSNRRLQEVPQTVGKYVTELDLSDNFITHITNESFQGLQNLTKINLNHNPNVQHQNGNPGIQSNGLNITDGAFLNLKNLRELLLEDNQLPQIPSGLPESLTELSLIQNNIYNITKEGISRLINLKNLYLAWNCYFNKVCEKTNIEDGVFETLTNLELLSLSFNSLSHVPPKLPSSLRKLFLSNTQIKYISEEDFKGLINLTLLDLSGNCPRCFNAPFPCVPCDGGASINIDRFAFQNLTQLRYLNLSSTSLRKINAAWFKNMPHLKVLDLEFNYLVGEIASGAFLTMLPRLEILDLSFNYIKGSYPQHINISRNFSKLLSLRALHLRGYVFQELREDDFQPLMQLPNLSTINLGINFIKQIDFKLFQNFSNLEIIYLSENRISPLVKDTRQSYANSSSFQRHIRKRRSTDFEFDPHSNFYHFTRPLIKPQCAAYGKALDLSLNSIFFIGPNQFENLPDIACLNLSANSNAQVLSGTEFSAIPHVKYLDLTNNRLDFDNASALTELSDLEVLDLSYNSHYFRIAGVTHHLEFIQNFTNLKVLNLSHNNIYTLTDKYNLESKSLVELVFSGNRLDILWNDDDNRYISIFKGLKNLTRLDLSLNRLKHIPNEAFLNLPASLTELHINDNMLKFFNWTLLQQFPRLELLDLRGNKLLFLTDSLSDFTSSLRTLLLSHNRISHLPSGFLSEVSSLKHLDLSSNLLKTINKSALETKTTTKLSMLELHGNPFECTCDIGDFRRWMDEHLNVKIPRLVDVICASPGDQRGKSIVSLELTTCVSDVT

[5] = target: T2, TLR7 WT (mmTLR7) (Macaca mulatta, UniProt B3Y653 27-839); assay: SPR; average; runs 7±2, 7±1, 6±1, 4±2, 4±2; SPR with recombinant TLR7/TLR8; buffer, pH and temperature not in the material; details: protein: recombinant; chain copies: 2; single-stranded
T2 sequence: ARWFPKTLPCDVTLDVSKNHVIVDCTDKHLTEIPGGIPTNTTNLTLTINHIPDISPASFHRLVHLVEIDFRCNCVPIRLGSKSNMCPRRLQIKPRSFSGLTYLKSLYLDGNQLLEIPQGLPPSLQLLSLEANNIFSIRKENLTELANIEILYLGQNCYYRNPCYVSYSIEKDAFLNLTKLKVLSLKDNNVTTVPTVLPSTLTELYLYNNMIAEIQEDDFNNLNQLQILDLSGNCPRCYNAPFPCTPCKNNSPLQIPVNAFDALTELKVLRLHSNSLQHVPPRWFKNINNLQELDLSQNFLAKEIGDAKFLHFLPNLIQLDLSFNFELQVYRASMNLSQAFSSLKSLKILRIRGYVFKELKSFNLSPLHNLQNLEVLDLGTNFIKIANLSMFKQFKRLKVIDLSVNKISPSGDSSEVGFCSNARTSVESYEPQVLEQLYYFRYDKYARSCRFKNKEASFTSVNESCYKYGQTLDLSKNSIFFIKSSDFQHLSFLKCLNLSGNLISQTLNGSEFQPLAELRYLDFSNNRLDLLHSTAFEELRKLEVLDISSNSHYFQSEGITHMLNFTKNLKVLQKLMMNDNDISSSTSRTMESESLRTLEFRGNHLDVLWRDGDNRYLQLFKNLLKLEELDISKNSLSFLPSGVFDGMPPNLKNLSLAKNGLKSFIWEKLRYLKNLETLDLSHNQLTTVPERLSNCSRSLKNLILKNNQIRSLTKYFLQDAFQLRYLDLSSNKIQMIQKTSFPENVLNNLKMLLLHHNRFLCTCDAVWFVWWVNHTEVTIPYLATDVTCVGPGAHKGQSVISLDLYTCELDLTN

[6] = target: T1, TLR8 WT (hTLR8); assay: SPR; negligible binding; SPR with recombinant TLR7/TLR8; buffer, pH and temperature not in the material; details: protein: recombinant; chain copies: 2; single-stranded
[7] = target: T2, TLR7 WT (mmTLR7); assay: as above; details: protein: recombinant; chain copies: 2; single-stranded
[8] = target: T2, TLR7 WT (mmTLR7); assay: SPR; average stated in text; table runs 38±2, 32±2, 30±1, 20±11, 11±1 (mean 26.2); SPR with recombinant TLR7/TLR8; buffer, pH and temperature not in the material; details: protein: recombinant; chain copies: 2; single-stranded
[9] = target: T1, TLR8 WT (hTLR8); assay: SPR; average; runs 3±1, 4±1, 5±1, 3±0.4, 4±1, 4±1; SPR with recombinant TLR7/TLR8; buffer, pH and temperature not in the material; details: protein: recombinant; chain copies: 2; single-stranded
[10] = target: T1, TLR8 WT (hTLR8); assay: SPR; mean computed from runs 1.8±0.2, 1.8±0.2, 1.5±0.2; SPR with recombinant TLR7/TLR8; buffer, pH and temperature not in the material; details: protein: recombinant; chain copies: 2; single-stranded
[11] = target: T2, TLR7 WT (mmTLR7); assay: cryo-EM; stereoisomer mixture, modeled as SS; 2.7 A; buffer, pH and temperature not in the material; details: protein: recombinant; chain copies: 2; single-stranded
[12] = target: T1, TLR8 WT (hTLR8); assay: SPR; control of the nucleoside series; mean computed from runs 1.4±0.9, 1.5±0.09, 1.6±0.1; SPR with recombinant TLR7/TLR8; buffer, pH and temperature not in the material; details: protein: recombinant; chain copies: 2; single-stranded
[13] = target: T3, TLR8 F495S (human, UniProt Q9NR97 27-827, F495S); assay: SPR; no binding observed; SPR with recombinant TLR7/TLR8; buffer, pH and temperature not in the material; details: protein: recombinant; chain copies: 2; single-stranded
T3 sequence: T1 sequence with F469S

[14] = target: T4, TLR8 I403S (human, UniProt Q9NR97 27-827, I403S); assay: SPR; mean computed from runs 7.6±0.5, 9.7±0.9, 7.5±0.3; SPR with recombinant TLR7/TLR8; buffer, pH and temperature not in the material; details: protein: recombinant; chain copies: 2; single-stranded
T4 sequence: T1 sequence with I377S

[15] = target: T1, TLR8 WT (hTLR8); assay: SPR; average; runs 5±1, 7±1, 5±1, 12±3, 7±1, 11±2; SPR with recombinant TLR7/TLR8; buffer, pH and temperature not in the material; details: protein: recombinant; chain copies: 2; single-stranded

stoichiometry N [1]: 2
stoichiometry N [2]: 2
stoichiometry N [3]: 2
Molecule: Macaca mulatta TLR7 (mmTLR7) ectodomain (receptor)

B1: GUC-v1 PS (mGmUdC) (XNA)
RNA: GUC
modifications: 2'-OMe G1, 2'-OMe U2, DNA C3; phosphorothioate linkages, stereo-random
binding result [4]: no binding
Kd [5]: 5.6 µM

B2: GUC-v6 PS (dGdTmC) (XNA)
DNA: GTC
modifications: DNA G1, DNA T2, 2'-OMe C3; phosphorothioate linkages, stereo-random
binding result [6]: no binding
binding result [7]: no binding

B3: GAG-v1 PS (mGmAdG) (XNA)
strand: GAG
modifications: 2'-OMe G1, 2'-OMe A2, DNA G3; phosphorothioate linkages, stereo-random
Kd [8]: 20.2 µM
Kd [9]: 4 µM

B4: mGrArA PS (XNA)
strand: GAA
modifications: 2'-OMe G1, RNA A2 A3; phosphorothioate linkages, stereo-random
Kd [10]: 1.7 µM
binding result [11]: binds
Kd [12]: 1.5 µM
binding result [13]: no binding
Kd [14]: 8.27 µM

B5: GCC-v4 PS (mGdCdC) (XNA)
strand: GCC
modifications: 2'-OMe G1, DNA C2, DNA C3; phosphorothioate linkages, stereo-random
binding result [7]: no binding
Kd [15]: 8 µM
